Measured values taken from US5686592, “High-affinity oligonucleotide ligands to immunoglobulin E (IgE)” (NeXstar Pharmaceuticals, Inc.).

T1: TAN IgE (chimeric: murine light chains and variable region, human heavy-chain constant region) (Mus musculus/Homo sapiens chimera, UniProt P01854-1 P01854-1:1-428)
T1 chain: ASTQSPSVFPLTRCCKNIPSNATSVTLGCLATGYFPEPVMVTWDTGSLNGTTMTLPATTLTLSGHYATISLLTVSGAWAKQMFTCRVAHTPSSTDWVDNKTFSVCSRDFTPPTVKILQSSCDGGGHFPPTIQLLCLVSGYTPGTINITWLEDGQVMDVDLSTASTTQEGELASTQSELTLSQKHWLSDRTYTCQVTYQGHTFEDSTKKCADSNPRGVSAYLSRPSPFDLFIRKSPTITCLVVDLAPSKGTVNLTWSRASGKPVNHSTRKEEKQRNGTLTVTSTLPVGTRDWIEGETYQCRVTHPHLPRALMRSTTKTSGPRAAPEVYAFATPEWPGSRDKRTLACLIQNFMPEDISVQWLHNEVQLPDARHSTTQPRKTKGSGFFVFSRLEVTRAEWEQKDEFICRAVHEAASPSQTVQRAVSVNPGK


Tests used:
[1] = target: T2, human IgE (Homo sapiens, UniProt P01854-1 P01854-1:1-428); assay: filter; modified PBS, 1 mM Mg2+, 37 C; conditions: tags: Athens Research Technology; chain copies: 2; label: 32P
[2] = target: T1, TAN IgE (chimeric: murine light chains …); assay: inhibition; inhibits IgE binding to FceRI on RBL SX-38 cells, ELISA; conditions: tags: biotinylated in the receptor assay; gift of Dr. Kinet (NIH); chain copies: 2; label: 32P
Protocol: Rat basophilic leukemia (RBL) cell-line SX-38 which expresses the α, β and γ subunits of the human FcεRI IgE receptor was plated at a concentration of 10^5 cells per well in 96 well flat-bottom microtiter plates. After overnight growth, the cells were washed three times in modified PBS and incubated for one hour at 37° C. in 30 μl of 1.5 μg/ml biotinylated TAN IgE. The cells were washed 3 more times and incubated in 30 μl of 1/100 dilution of horseradish peroxidase conjugated to avidin (Molecular Probes, Eugene, Oreg.) for one hour at 37° C. After three final washes, 30 μl of 3,3',5,5'-tetramethylbenzidine (TMB) substrate (Kirkegaard and Perry Laboratories, Gaithersburg, Md.) were added as a chromogenic substrate and the plate was immediately transferred to the microtiter plate reader (Bio-Tek Instruments, Winooski, Vt.) for analysis. The absorbance at 630 nm was measured every 60 sec over a time span of 15 min. The rate of color development is an indication of the extent of IgE binding to the FcεRI receptor and was determined from the linear part of absorbance versus time graphs (data not shown). […] The inhibition activities of the RNA ligands were determined using the following formula: […]

[3] = target: T1, TAN IgE (chimeric: murine light chains …); assay: filter; modified PBS, 1 mM Mg2+, 37 C; conditions: tags: biotinylated in the receptor assay; gift of Dr. Kinet (NIH); chain copies: 2; label: 32P
Protocol: To test the specificity of the high-affinity interaction between the RNA ligands and human IgE, binding experiments were performed with different immunoglobulins as described in Example 1.
In order to localize which part of the IgE molecule the RNA ligands are contacting, binding experiments were carried out with a hybrid IgE molecule. The light chains and the variable region of this TAN IgE are murine derived, whereas the constant portion of the heavy chains are human.

[4] = target: T1, TAN IgE (chimeric: murine light chains …); assay: inhibition; inhibits IgE binding to FceRI on RBL SX-38 cells, ELISA; conditions: tags: biotinylated in the receptor assay, gift of Dr. Kinet (NIH), chain copies: 2, label: 5' 32P
Protocol: A cell-based enzyme linked immunosorbent assay (ELISA) was used to measure the ability of the high-affinity DNA ligands to inhibit binding of IgE to the FcεRI receptor. Rat basophilic leukemia (RBL) cell-line SX-38 which expresses the α, β and γ subunits of the human FcεRI receptor was plated at a concentration of 10^5 cells per well in 96 well flat-bottom microtiter plates. After overnight growth, the cells were washed three times in modified PBS and incubated for one hour at 37° C. in 30 µl of 1.5 µg/ml biotinylated TAN IgE. The cells were washed 3 more times and incubated in 30 µl of 1/100 dilution of horseradish peroxidase (Molecular Probes, Eugene, Oreg.) conjugated to avidin for one hour at 37° C. After three final washes, 30 µl of 3,3',5,5'-tetramethylbenzidine (TMB) substrate, (Kirkegaard and Perry Laboratories, Gaithersburg, Md.) were added as a chromogenic substrate, and the plate was immediately transferred to the microtiter plate reader (Bio-Tek instruments, Winooski, Vt.) for analysis. The absorbance at 630 nm was measured every 60 seconds over a time span of 15 minutes. The rate of color development is an indication of the extent of IgE binding to the FcεRI receptor and was determined from the linear part of absorbance versus time graphs (data not shown). […] The inhibition activities of the RNA ligands were determined using the following formula: […]

[5] = target: T2, human IgE; assay: filter; modified PBS, 1 mM Mg2+, 37 C; conditions: tags: Athens Research Technology, chain copies: 2, label: 5' 32P
Protocol: Affinities of representative DNA ligands for human IgE were determined by nitrocellulose filter binding experiments and the K_Ds are listed in Table 7. […] Individual clones tested from this pool have affinities in the same range. The affinities were not expected to vary widely since the enriched DNA pool is very homogenous. Ligand D17.0 was picked for truncation experiments. […] However, the affinity could be restored to the level of the full-length ligand by the addition of a 4 basepair stem resulting in the 37 base truncate D17.4. It is possible that the stem in D17.1 is not stable enough to prevent the formation of an alternative secondary structure and that the additional base pair in D17.4 lock in the conformation necessary for IgE binding.

Binder	Kd [1] [nM]	further results
IGEL13.1 (ssRNA, 2'-NH2 on all C and U) RNA: GGGAGGACGAUGCGGGACGGGGGCGGAAUCAUGCAUGUGAGCGAACAGAGAGAGAGCCGUGUAUCCAUUCGUGGUCAGACGACUCGCCCGA	50	–
IGEL5.1 (ssRNA, 2'-NH2 on all C and U) RNA: GGGAGGACGAUGCGGGUAUCGGUACGUGUUGGCUUGGGAAGGGGUCCGACGGUGCAGACGACUCGCCCGA	145	–
IGEL3.1 (ssRNA, 2'-NH2 on all C and U) RNA: GGGAGGACGAUGCGGUCCAUCGAUUAGGCGGUCGUGCUGGUGUAGUGUGUAGUGGCAGACGACUCGCCCGA	56	–
GGGAGGACGAUGCGGGUGUGAAUGGUGUUGUGAGG (ssRNA, 2'-NH2 on all C and U) [IGEL1.2]	19	Ki [2]: 21 nM; Kd [3]: 36 nM
IGEL4.1 (ssRNA, 2'-NH2 on all C and U) RNA: GGGAGGACGAUGCGGACGGUAGUCUGGUAGGCGCUGUGACGGCGAGAAUCCGGACCAGACGACUCGCCCGA	87	–
IGEL8.1 (ssRNA, 2'-NH2 on all C and U) RNA: GGGAGGACGAUGCGGACCGCCCGUCGAGGGCUAGGCGUAGAGUCUAACCGGUGCCAGACGACUCGCCCGA	225	–
IGEL44.1 (ssRNA, 2'-NH2 on all C and U) RNA: GGGAGGACGAUGCGGGUGCGGGGCGAGUAUAUGAAACUUGGCUUGGUAAUGAUCAGAAGUAGUGAGAACUGGGUGCAGACGACUCGCCCGA	34	–
IGEL1.1 (ssRNA, 2'-NH2 on all C and U) RNA: GGGAGGACGAUGCGGGUGUGAAUGGUGUUGUGAGGUUACUGUACUUCGGUGGCUGCAGACGACUCGCCCGA	138	Ki [2]: 44 nM; Kd [3]: 77 nM
IGEL7.1 (ssRNA, 2'-NH2 on all C and U) RNA: GGGAGGACGAUGCGGAGACGCGUGAACACUAGUAUCACAGUUAAGGAUGCGCGCAGACGACUCGCCCGA	142	–
IGEL2.1 (ssRNA, 2'-NH2 on all C and U) RNA: GGGAGGACGAUGCGGGUGUGGGGCGAAUGAGAAACGUUACCAGGAAAUGCGACUGCAGACGACUCGCCCGA	41	–
IGEL9.1 (ssRNA, 2'-NH2 on all C and U) RNA: GGGAGGACGAUGCGGGCGGGGAACAGACGGCUCAGAGCGGCACGAUUGUCAGCCAGCAAUUAUAUCGUGUUGAUGCAGACGACUCGCCCGA	105	–
IGEL31.1 (ssRNA, 2'-NH2 on all C and U) RNA: GGGAGGACGAUGCGGGUGUGAAUGGUGUUGUGAGGUUCUCGACUGUUUGUGUCUAGCCGUACUUUAGCCUCGGCCAGACGACUCGCCCGA	134	–
IGEL49.1 (ssRNA, 2'-NH2 on all C and U) RNA: GGGAGGACGAUGCGGGUGUGGGGCGGAUAAUGAGUGAACAGAGUGAAAUUCCAGUGUAGCCAGACUGUGCUGUCGCAGACGACUCGCCCGA	39	–
IGEL29.1 (ssRNA, 2'-NH2 on all C and U) RNA: GGGAGGACGAUGCGGGUGUCAAUGGUGUUGCGAGGCAAAAAUAACCAGCGCAUAUUCUCGGCCAUGUUGGCGUGCAUACAGACGACUCGCCCGA	141	–
IGEL10.1 (ssRNA, 2'-NH2 on all C and U) RNA: GGGAGGACGAUGCGGGCCACGCGUGGUUAGGGAUCGCGGACAGCACAAAUCGAAUUUGAUUCGCACCUGGACGGUCAGACGACUCGCCCGA	69	–
GGGAGGACGAUGCGGGUGUGGGGCG (ssRNA, 2'-NH2 on all C and U) [IGEL2.2]	44	–
IGEL11.1 (ssRNA, 2'-NH2 on all C and U) RNA: GGGAGGACGAUGCGGAACAGCACGAGUGUACCUAAGACAGGCGAUGGCACUCGUGGUCGAAAUCAUAUAGUGAUGCAGACGACUCGCCCGA	129	–
D17.0 (ssDNA) DNA: CTACCTACGATCTGACTAGCCAATGAGTGTACCACGTTTATCCGTCCCTCCTAGTGGCGTGCTTACTCTCATGTAGTTCC	–	Ki ([4]; stem-loop): ~40 nM; Kd ([5]; stem-loop): 9 nM
CACGTTTATCCGTCCCTCCTAGTGGCGTG (ssDNA) [D17.1]	–	Kd ([5]; hairpin): 82 nM
GGGGCACGTTTATCCGTCCCTCCTAGTGGCGTGCCCC (ssDNA) [D17.4]	–	Ki ([4]; hairpin): ~40 nM; Kd ([5]; hairpin): 10 nM
IGEL25.1 (ssRNA, 2'-NH2 on all C and U) RNA: GGGAGGACGAUGCGGGUGUGAAUGGUGUCGUGAGGACUUAUCAGGCUCCGUGGUGCAGACGACUCGCCCGA	186	–
IGEL48.1 (ssRNA, 2'-NH2 on all C and U) RNA: GGGAGGACGAUGCGGGAGUGGGGCGAUGAGAGAGAUCAGAGAACUAGAAGUGAUACAAAAUCUGAGGUUGUUGCGCAGACGACUCGCCCGA	30	–
